Test results taken from paper PMC5986207, “Structural insights into the mechanism of action of a biparatopic anti-HER2 antibody” (The Journal of Biological Chemistry, 2018).

Target: T1, human HER2 extracellular domain, soluble, His-tagged (Homo sapiens)
T1 construct: human HER2 (ERBB2) extracellular domain, subdomains I-IV; the electron density covers amino acids 1 to 575, leaving the last 55 residues invisible; About 86 kDa, of which 17 kDa glycan; The purified His-tagged HER2 (crystals, AUC); also called HER2 ecd; soluble HER2; source: HEK293F; purified (IMAC, Superdex200) for crystals; cell culture supernatant for SPR
Test: AUC; multisignal sedimentation velocity (MSSV), 4:1 molar loading of HER2 to antibody (5.8:1.4 μM), PBS, 20 °C, 42,000 rpm, UV 280 and 250 nm and interference, SEDPHAT
Conditions: both partners purified

stoichiometry N: 2 HER2 per 39S mAb
B1: anti-HER2 fully human mAb 39S (IgG1κ) (antibody, V domains shown)
VH: EVQLVESGGGLVKPGGSLRLSCAASGFTFSSYSMSWVRQAPGKGLEWVSSISSSSSYIYYADSVKGRFTISRDNAKNSLYLQMNSLRAEDTAVYYCARGGDAYNYYYFDYWGQGTLVTVSS
VL: DIVMTQTPLSLSVTPGQPASISCKSSQSVFFRSNNKNILAWYLQKPGQPPQLLIYWASSRESGVPDRFSGSGSGTDFTLKISRVEAEDVGVYYCQQYFGSPFTFGPGTKVDIK
notes: variable domain of the 39S heavy chain; as in the heavy chain of m1 (PDB 6ATT); human IgG1 heavy chain constant region (its CH1 is also in the heavy chain of PDB 6ATT); whole kappa light chain of 39S; as the light chain of m1 (PDB 6ATT); IgG1 kappa, about 148 kDa; also called 39S mAb; Antibody 39S
